{
  "source": "IntAct's records for PubMed 20802462",
  "parents": {"B1": {"name": "ERO1-like protein alpha (Homo sapiens), Q96HE7 (parent)", "chain": "MGRGWGFLFGLLGAVWLLSSGHGEEQPPETAAQRCFCQVSGYLDDCTCDVETIDRFNNYRLFPRLQKLLESDYFRYYKVNLKRPCPFWNDISQCGRRDCAVKPCQSDEVPDGIKSASYKYSEEANNLIEECEQAERLGAVDESLSEETQKAVLQWTKHDDSSDNFCEADDIQSPEAEYVDLLLNPERYTGYKGPDAWKIWNVIYEENCFKPQTIKRPLNPLASGQGTSEENTFYSWLEGLCVEKRAFYRLISGLHASINVHLSARYLLQETWLEKKWGHNITEFQQRFDGILTEGEGPRRLKNLYFLYLIELRALSKVLPFFERPDFQLFTGNKIQDEENKMLLLEILHEIKSFPLHFDENSFFAGDKKEAHKLKEDFRLHFRNISRIMDCVGCFKCRLWGKLQTQGLGTALKILFSEKLIANMPESGPSYEFHLTRQEIVSLFNAFGRISTSVKELENFRNLLQNIH"}},
  "data": [
    {"variants_of": "B1", "conditions": "with pdia1_human P4HB", "values": [
      {"variant": "C94S", "effect of a mutation on the interaction": "disrupting interaction"}
    ]}
  ]
}
